What all share (test): pull-down
Assay [1] addresses His6-Spx F113A (Bacillus subtilis) (UniProt O31602).
Assay [2] deals with His6-Spx L114A (Bacillus subtilis) (UniProt O31602).
Assay [3] deals with His6-Spx R112A (Bacillus subtilis) (UniProt O31602).

These results are taken from paper PMC4128009.

For the substance “Geobacillus thermodenitrificans YjbH (GtYjbH), without tag (natural protein)”, the decrease of YjbH binding compared to the WT is 80% in assay [1], 50% in assay [2] and 80% in assay [3].
